This is an account of results in ChEMBL document CHEMBL4476871, “SULFAMIDE AND SULFAMATE INHIBITORS OF hHint1” (2018).

Compound in series [1]: Nc1nc2c(ncn2[C@@H]2O[C@H](COP(=O)(O)NCCc3c[nH]c4ccccc34)[C@@H](O)[C@H]2O)c(=O)[nH]1
Put plainly: (§1) Inhibition of full-length human N-terminal His6-tagged Hint1 expressed in Escherichia coli Rosetta 2 pLysS cells assessed as ratio of Kcat to Km.

Compound in series [2]: Nc1ncnc2c1ncn2[C@@H]1O[C@H](COP(=O)(O)OC(=O)CCc2c[nH]c3ccccc23)[C@@H](O)[C@H]1O
Described as §1.

B1: Adenosine 5'-monophosphoramidase HINT1 (Homo sapiens), P49773 (protein)
chain: MADEIAKAQVARPGGDTIFGKIIRKEIPAKIIFEDDRCLAFHDISPQAPTHFLVIPKKHISQISVAEDDDESLLGHLMIVGKKCAADLGLNKGYRMVVNEGSDGGQSVYHVHLHVLGGRQMHWPPG
As to B1, the kcat/Km in series [1] and in series [2] was 1.1 ×10⁷ /M/s each time.
